Measured values from patent US20250270343A1 (Alector, published 2025).
Positions count from the first letter of the chain named. Blank lines part the entries; values can stand above or below the binder they belong to.

Experiments:
[1] = target: T1, full-length untagged human GPNMB expressed on cells (human, UniProt Q14956 23-572); test: FACS titration, FS293-huGPNMB+ cells
T1 construct: also used here for GPNMB on human monocyte-derived macrophages in the functional assays; also called huGPNMB; Freestyle293-huGPNMB+
T1 sequence: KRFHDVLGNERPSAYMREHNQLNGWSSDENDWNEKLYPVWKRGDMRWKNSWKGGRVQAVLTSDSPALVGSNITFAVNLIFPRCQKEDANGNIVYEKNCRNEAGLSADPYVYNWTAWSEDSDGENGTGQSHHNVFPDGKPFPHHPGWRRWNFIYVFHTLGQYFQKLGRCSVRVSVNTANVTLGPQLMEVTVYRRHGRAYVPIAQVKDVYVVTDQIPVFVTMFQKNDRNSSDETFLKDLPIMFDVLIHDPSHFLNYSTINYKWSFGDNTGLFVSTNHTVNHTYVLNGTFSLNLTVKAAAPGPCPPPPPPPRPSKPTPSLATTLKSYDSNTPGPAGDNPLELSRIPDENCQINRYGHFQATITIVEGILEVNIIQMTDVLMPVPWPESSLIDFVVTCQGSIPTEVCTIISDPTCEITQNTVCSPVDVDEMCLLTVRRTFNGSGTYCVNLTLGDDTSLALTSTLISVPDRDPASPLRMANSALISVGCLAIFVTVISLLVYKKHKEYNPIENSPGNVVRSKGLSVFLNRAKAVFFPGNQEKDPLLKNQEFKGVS
Experimental: Cell-based binding measurements were also performed to measure the apparent affinities of anti-GPNMB antibodies of the present disclosure to cell-surface expressed GPNMB. Serial dilutions of the monoclonal anti-GPNMB antibodies were added to 100,000 Freestyle293-huGPNMB+ or B16F10 cells and allowed to achieve binding equilibrium at 4° C. After addition of fluorescently labeled secondary antibody and brief washing steps, MFI values as a function of titrated antibody concentration was recorded via FACS analysis. Curves were fit using nonlinear regression analysis with Graphpad Prism 6 software.

[2] = target: T2, soluble human GPNMB (recombinant extracellular domain) (human, UniProt Q14956 23-498); test: SPR Carterra, Ab immobilized
T2 construct: also called huGPNMB; recombinant human GPNMB extracellular domain; not shown: C-terminal polyhistidine or Avi-His tag
T2 sequence: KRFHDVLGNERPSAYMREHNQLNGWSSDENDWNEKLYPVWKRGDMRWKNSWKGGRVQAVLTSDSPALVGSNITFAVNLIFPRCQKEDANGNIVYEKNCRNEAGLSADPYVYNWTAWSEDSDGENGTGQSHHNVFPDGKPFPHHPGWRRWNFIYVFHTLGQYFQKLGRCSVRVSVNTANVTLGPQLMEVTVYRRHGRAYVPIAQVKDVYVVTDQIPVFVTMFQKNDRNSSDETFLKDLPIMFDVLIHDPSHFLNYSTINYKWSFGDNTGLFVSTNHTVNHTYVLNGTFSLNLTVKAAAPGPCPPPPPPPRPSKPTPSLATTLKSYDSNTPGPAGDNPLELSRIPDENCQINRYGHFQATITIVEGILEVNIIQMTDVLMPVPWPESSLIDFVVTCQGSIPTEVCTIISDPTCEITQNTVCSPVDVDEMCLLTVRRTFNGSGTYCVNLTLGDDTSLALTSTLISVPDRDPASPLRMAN
Summary of the method: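 Analyte series of GPNMB extracellular domain (2.5, 7.4, 22, 67, 200, 600 nM) flowed in ascending order, no regeneration, over IgG1 antibodies EDC/NHS-immobilized on an HC200M array. HBS-EP+ plus 0.5 mg/ml BSA as running buffer, two blanks per series. Affinity estimated via high-throughput kinetic fitting.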

[3] = target: T1, full-length untagged human GPNMB …; test: FACS, FS293-huGPNMB+ cells
Experimental: Recombinant anti-GPNMB antibodies of the present disclosure were examined for their ability to bind human and/or mouse GPNMB expressed on Freestyle293-huGPNMB+ or B16F10 cells, respectively. B16F10 cells are a murine melanoma cell line from a C57BL/6J mouse that endogenously express high levels of mouse GPNMB. The antibodies were also tested for their ability to bind to a human macrophage cell line (U937 cells) engineered to express human GPNMB. Cells were harvested, plated at 100,000 cells/well in a 96-well round bottom plate, and incubated in 100 μl FACS buffer (PBS containing 2% FBS, 2 mM EDTA) containing anti-GPNMB monoclonal antibodies of the present disclosure for 30 minutes on ice. Cells were then washed and incubated in 100 ul FACS buffer containing 1 μg/ml APC-conjugated anti-human IgG secondary antibody for 30 minutes in ice. Cells were washed twice in cold FACS buffer and acquired on a BD FACS Canto. Data analysis and calculation of MFI values was performed with FlowJo (TreeStar) software version 10.0.7.
Importantly, several anti-GPNMB antibodies of the present disclosure also bound to the human macrophage cell line U937 cells engineered to express human GPNMB (U937/huGPNMB+) (FIG. 2C). In FIG. 2C, the first data point in each pair corresponds to U937/huGPNMB+ cells, and the second data point in each pair corresponds to U937/huGPNMB− cells. No anti-GPNMB antibodies bound to U937 cells deficient in human GPNMB expression (U937/huGPNMB−).

- EC50 [1]: 3.88 nM
- Kd [2]: 0.441 nM
- koff [2]: 8.2e-05 s⁻¹
- kon [2]: 200000 M⁻¹ s⁻¹
- MFI fold over background [3]: 23.6 fold
B1: anti-GPNMB antibody GPN-41 (antibody, human IgG1, V domains shown)
VH: QLQLQQSGTEVVKPGASVKIPCKASGYAFSSYWMNWVKQRPGKGLEWIGQIYPGDGDTNDNGKFEGKATLTVDKSSNTAYIQLSSLTSEDSAVYFCARSPLHLRGSMDYWGQGTSVTVSS
VL: SIVMTQTPKFLLVSAGDRVTITCKASQSVSNDVAWFQQKPGQSPELLIYSASNRYTGVPDRFTASGYGTDFTFTISAVQAEDLAVYFCQQNYYSPFTFGGGTRLEIK
notes: chimeric

- EC50 [1]: 2.6 nM
- Kd [2]: 0.49 nM
- koff [2]: 0.0001 s⁻¹
- kon [2]: 210000 M⁻¹ s⁻¹
- MFI fold over background [3]: 8.1 fold
B2: anti-GPNMB antibody GPN-65 (antibody, human IgG1, V domains shown)
VH: B1 VH
VL: B1 VL with A64G, A77T
notes: chimeric

- EC50 [1]: 0.99 nM
- Kd [2]: 4.92 nM
- koff [2]: 0.00053 s⁻¹
- kon [2]: 110000 M⁻¹ s⁻¹
- MFI fold over background [3]: 20.7 fold
B3: anti-GPNMB antibody GPN-38 (antibody, human IgG1, V domains shown)
VH: QVQLQQPGAELVRPGTSVRLSCKASGYTFTSYWIHWVKQRPGRGLEWIGVIDPSDSYTNYNQQFNVKATLTVDTSSSAAYMQLSSLTSEDSAVYYCARGLITAVNWYFDVWGTGTTVTVSS
VL: DIQMTQSPASLSTSVGEIVTITCRASENIYSYLTWYQQKQGKSPQLLVYNAKTLAEGVPSRFSGSGSGTQFSLKINSLQPEDFGTYYCQHHYGTPLTFGSGTKLEIK
notes: chimeric

- EC50 [1]: 18.8 nM
- Kd [2]: 1.1 nM
- koff [2]: 0.00037 s⁻¹
- kon [2]: 330000 M⁻¹ s⁻¹
- MFI fold over background [3]: 9.7 fold
B4: anti-GPNMB antibody GPN-48 (antibody, human IgG1, V domains shown)
VH: QVQLQQSGPELVKPGASVKLSCRASGYGFSSFWMNWVKQRPGKGLEWIGRIYPGKGDTLYNGKFKDKATLTADESSSTAYMQLSSLTSEDSAVYFCARSIYYYDYWYFDVWDTGTTVTVSS
VL: DIVMTQSHKFMSTSVGDRVNITCKASQDVNSAIAWYQQKPGQSPKLLIYSASYRFIGVPDRFTGSGSGTGFTFTISSVQAEDLAVYYCQQHYTTPLTFGAGTKLELK
notes: chimeric
